B1: soluble BCMA (B-cell maturation antigen) (receptor)
chain: MLQMAGQCSQNEYFDSLLHACIPCQLRCSSNTPPLTCQRYCNASVTNSVKGTNA
B2: APRIL (a proliferating ligand), IgG2a Fc conjugated binder (Fc fusion)
chain: SVLHLVPINATSKDDSDVTEVMWQPALRRGRGLQAQGYGVRIQDAGVYLLYSQVLFQDVTFTMGQVVSREGQGRQETLFRCIRSMPSHPDRAYNSCYSAGVFHLHQGDILSVIIPRARAKLNLSPHGTFLGFVKL

How the values were obtained:
Experiment in all cases: SPR
bb2121 (C11D5.3) = biological target: bb2121 (C11D5.3)
[1] = biological target: B1
[2] = biological target: B1

Row | Binder | Kd (bb2121 (C11D5.3)) [nM] | koff (bb2121 (C11D5.3)) [s⁻¹] | Kd [1] [nM] | koff [2] [s⁻¹]
1 | B1 | 0.328 | 0.00155 |  | 
2 | B2 |  |  | 3.7 | 0.00393
